*: point of attachment. Biotin = O=C1N[C@H]2[C@H](CS[C@H]2CCCCC(=O)*)N1
Key:
[1] = target: CCR4 on CCR4-transfected B300.19 mouse lymphoma cells (human) (UniProt P51679); experiment: FACS, CCR4-transfected B300.19 cells, biotinylated chemokine then FITC-avidin
[2] = target: CCR4 on CCR4-transfected B300.19 mouse lymphoma cells (human) (UniProt P51679); experiment: cell-based or functional assay
[3] = target: T1, FITC-conjugated avidin (BD Biosciences) (UniProt P02701 25-152, FITC conjugate); experiment: FACS; avidin binds the biotin of the receptor-bound chemokine
T1 construct: Detection reagent; also called FITC-avidin; FITC-labeled avidin
T1 sequence (P02701 25-152 limits assumed): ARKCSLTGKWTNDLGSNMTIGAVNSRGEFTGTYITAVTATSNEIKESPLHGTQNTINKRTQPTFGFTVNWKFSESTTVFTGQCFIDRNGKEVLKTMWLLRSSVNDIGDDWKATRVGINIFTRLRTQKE
From the text: After 2 repetitive washings using staining buffer, cells were fixed in PBS with 1% FCS 1% and 1% PFA before FACS analysis.

Sequence of CCR4 on CCR4-transfected B300.19 mouse lymphoma cells (human) (P51679 whole entry): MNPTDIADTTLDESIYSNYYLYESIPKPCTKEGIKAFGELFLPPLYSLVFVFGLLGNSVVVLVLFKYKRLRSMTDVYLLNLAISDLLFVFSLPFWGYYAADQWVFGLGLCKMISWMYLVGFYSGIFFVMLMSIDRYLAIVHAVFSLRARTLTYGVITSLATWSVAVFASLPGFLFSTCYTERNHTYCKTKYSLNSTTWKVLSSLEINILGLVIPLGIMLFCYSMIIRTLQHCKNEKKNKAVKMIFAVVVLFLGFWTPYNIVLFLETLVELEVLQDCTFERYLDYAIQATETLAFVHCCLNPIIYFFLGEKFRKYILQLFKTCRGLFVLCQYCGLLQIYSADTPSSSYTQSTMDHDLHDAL

| Molecule | MFI [1] | dose at which minimal migration is still detectable [2] [ng/mL] | dose for optimal migration of CCR4-transfected cells [2] [ng/mL] | binding result [3] |
| --- | --- | --- | --- | --- |
| biotinylated CCL22(G1) analogue (from UniProt O00626 25-93) (ligand) | 5.9 | 0.1 | 1 to 10 | – |
| biotinylated CCL22(K49) analogue (from UniProt O00626 25-93) (ligand) | 6.1 | 0.1 | 1 to 10 | – |
| biotinylated CCL22(K61) analogue (from UniProt O00626 25-93) (ligand) | 6.6 | 0.1 | 1 to 10 | – |
| biotinylated CCL22(K66) analogue (ligand, Synthetic human CCL22 with one biotin; also called biotinylated h-MDC) GPYGANMEDSVCCRDYVRYRLPLRVVKHFYWTSDSCPRPGVVLLTFRDKEICADPRVPWVKMILNK(Biotin)LSQ | – | – | – | binds |

From patent US20040138422A1 (published 2004)
